A word on the Kd: it is the free concentration of one partner at which half of the binding sites on the other are occupied at equilibrium, for simple one-to-one binding. Low values mean higher affinity, high ones lower affinity.

Consider two molecules from article PMC4059526 (2014).

Data set [1] has as its target T1, SNF (Drosophila melanogaster, UniProt P43332).
T1 chain: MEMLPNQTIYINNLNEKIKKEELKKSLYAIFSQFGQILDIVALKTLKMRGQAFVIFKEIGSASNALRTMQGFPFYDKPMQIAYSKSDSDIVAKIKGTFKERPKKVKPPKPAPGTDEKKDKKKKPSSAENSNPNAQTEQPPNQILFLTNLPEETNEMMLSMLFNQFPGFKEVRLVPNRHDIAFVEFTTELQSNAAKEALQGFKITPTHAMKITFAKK

The target in data set [2] is T2, SNF (sans fille) (Drosophila, UniProt P43332 1-216).
T2 sequence: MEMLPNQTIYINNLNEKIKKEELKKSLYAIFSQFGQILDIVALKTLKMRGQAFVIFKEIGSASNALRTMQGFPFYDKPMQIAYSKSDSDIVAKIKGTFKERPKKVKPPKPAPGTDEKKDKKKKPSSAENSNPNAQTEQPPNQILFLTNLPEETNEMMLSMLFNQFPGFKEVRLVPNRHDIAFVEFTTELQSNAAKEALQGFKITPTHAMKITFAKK
The experiment in a line: 2-aminopurine fluorescence and CD.

B1: U2A' (protein)
chain: MVKLTPELINQSMQYINPCRERELDLRGYKIPQIENLGATLDQFDTIDLSDNDLRKLDNLPHLPRLKCLLLNNNRILRISEGLEEAVPNLGSIILTGNNLQELSDLEPLVGFTKLETICLLINPVSTKPNYREYMAYKFPQLRLLDFRKIKQKDRQAAQEFFRTKQGKDVLKEISRKSKMSAAAAIAAEAGNGKGRGSEGGRLANPQDMQRIREAIKRASSLAEVERLSQILQSGQLPDKFQHEMEAVAQNGAGHNGSGAVAMEY
modifications: SLIV RNA bound
Consider B1, for which the dissociation constant (Kd) in data set [1] came out at 4 nM.

B2: 2AP-SLIV (structured_RNA)
RNA: GGCCGUAUUGCAGUACCGCGGCC
modifications: 2-aminopurine replaces A at position 15 (3'-loop adenine)
On to B2, for which the binding result in data set [2] is “binds”.
